The values that follow are results of earlier work, collected in patent US8901167B2, “Product and process for inhibition of biofilm development” (National Jewish Health, priority 2004, dated 2014).

The test system of one data set is P. aeruginosa biofilm. The following applies: literature refs 39, 43.
Data set [1] has as its system extracellular DNA present in the CF airway. The following applies: inhalation, CF patients; Fuchs et al. 1994.

B1: lactoferrin: a major component of the secondary neutrophil granules (protein, UniProt P02788 20-710, looked up)
Lactotransferrin: GRRRSVQWCAVSQPEATKCFQWQRNMRKVRGPPVSCIKRDSPIQCIQAIAENRADAVTLDGGFIYEAGLAPYKLRPVAAEVYGTERQPRTHYYAVAVVKKGGSFQLNELQGLKSCHTGLRRTAGWNVPIGTLRPFLNWTGPPEPIEAAVARFFSASCVPGADKGQFPNLCRLCAGTGENKCAFSSQEPYFSYSGAFKCLRDGAGDVAFIRESTVFEDLSDEAERDEYELLCPDNTRKPVDKFKDCHLARVPSHAVVARSVNGKEDAIWNLLRQAQEKFGKDKSPKFQLFGSPSGQKDLLFKDSAIGFSRVPPRIDSGLYLGSGYFTAIQNLRKSEEEVAARRARVVWCAVGEQELRKCNQWSGLSEGSVTCSSASTTEDCIALVLKGEADAMSLDGGYVYTAGKCGLVPVLAENYKSQQSSDPDPNCVDRPVEGYLAVAVVRRSDTSLTWNSVKGKKSCHTAVDRTAGWNIPMGLLFNQTGSCKFDEYFSQSCAPGSDPRSNLCALCIGDEQGENKCVPNSNERYYGYTGAFRCLAENAGDVAFVKDVTVLQNTDGNNNEAWAKDLKLADFALLCLDGKRKPVTEARSCHLAMAPNHAVVSRMDKVERLKQVLLHQQAKFGRNGSDCPDKFCLFQSETKNLLFNDNTECLARLHGKTTYEKYLGPQYVAGITNLKKCSTSPLLEACEFLRK
Turning to B1, the “Effect on P. aeruginosa biofilm formation” value in the data set on P. aeruginosa biofilm is given as “prevent P. aeruginosa biofilm development”.

B2: rhDNase: purified rhDNase (Pulmozyme; Genentech), digests extracellular DNA present in the CF airway (protein, UniProt P24855 23-282, looked up)
Deoxyribonuclease-1: LKIAAFNIQTFGETKMSNATLVSYIVQILSRYDIALVQEVRDSHLTAVGKLLDNLNQDAPDTYHYVVSEPLGRNSYKERYLFVYRPDQVSAVDSYYYDDGCEPCGNDTFNREPAIVRFFSRFTEVREFAIVPLHAAPGDAVAEIDALYDVYLDVQEKWGLEDVMLMGDFNAGCSYVRPSQWSSIRLWTSPTFQWLIPDSADTTATPTHCAYDRIVVAGMLLRGAVVPDSALPFNFQAAYGLSDQLAQAISDHYPVEVMLK
For B2, the “Clinical effect on sputum viscosity and forced expiratory volume (FEV)” value in data set [1] is “clinically effective for diminishing sputum viscosity and stabilizing the forced expiratory volume”.
